Test results taken from patent US20250236657A1 (TOSOH, published 2025).
Where a chain is given by its changes, count along the chain named.

Columns and labels:
[1] = biological target: AAV vector (AAV5-EGFP), adeno-associated virus serotype 5 (adeno-associated virus serotype 5 (AAV5)); assay: ELISA, AAV5-EGFP coated, culture supernatant, anti-6His, A450
[2] = biological target: AAV vector (AAV5-EGFP), adeno-associated virus serotype 5 (adeno-associated virus serotype 5 (AAV5)); assay: ELISA, AAV5-EGFP coated, culture supernatant, anti-6His, A450; the reference itself
[3] = biological target: T1, AAV2 (wild type), serotype 2 AAV with capsid region VP1 of SEQ ID NO: 99 (adeno-associated virus serotype 2 (AAV2), UniProt P03135 1-735); assay: affinity HPLC, AVR10s immobilization gel, linear pH gradient 4.5 to 2.2, AAV2 peak top
T1 construct: Recombinant AAV2 vector particles (EGFP genome) in filtered cell lysate; the capsid is assembled from VP1, VP2 and VP3

[4] = biological target: T2, AAV2 S267T (adeno-associated virus serotype 2 (AAV2), UniProt P03135 1-735); assay: as above
T2 construct: Recombinant AAV2 vector particles in filtered cell lysate

[5] = biological target: T3, AAV2 S267A (adeno-associated virus serotype 2 (AAV2), UniProt P03135 1-735); assay: as above
T3 construct: Recombinant AAV2 vector particles in filtered cell lysate

[6] = biological target: T4, AAV2 R471A (adeno-associated virus serotype 2 (AAV2), UniProt P03135 1-735); assay: as above
T4 construct: Recombinant AAV2 vector particles in filtered cell lysate

[7] = biological target: T5, AAV2 S264A (adeno-associated virus serotype 2 (AAV2), UniProt P03135 1-735); assay: as above
T5 construct: Recombinant AAV2 vector particles in filtered cell lysate

[8] = biological target: T6, AAV2 E499A (adeno-associated virus serotype 2 (AAV2), UniProt P03135 1-735); assay: as above
T6 construct: Recombinant AAV2 vector particles in filtered cell lysate

[9] = biological target: T7, AAV2 Q263A (adeno-associated virus serotype 2 (AAV2), UniProt P03135 1-735); assay: as above
T7 construct: Recombinant AAV2 vector particles in filtered cell lysate

[10] = biological target: T8, AAV2 T503S (adeno-associated virus serotype 2 (AAV2), UniProt P03135 1-735); assay: as above
T8 construct: Recombinant AAV2 vector particles in filtered cell lysate

[11] = biological target: T9, AAV2 S384A (adeno-associated virus serotype 2 (AAV2), UniProt P03135 1-735); assay: as above
T9 construct: Recombinant AAV2 vector particles in filtered cell lysate

[12] = biological target: T10, AAV2 D529E (adeno-associated virus serotype 2 (AAV2), UniProt P03135 1-735); assay: as above
T10 construct: Recombinant AAV2 vector particles in filtered cell lysate

[13] = biological target: T11, AAV2 Q385A (adeno-associated virus serotype 2 (AAV2), UniProt P03135 1-735); assay: as above
T11 construct: Recombinant AAV2 vector particles in filtered cell lysate

[14] = biological target: T12, AAV2 H271A (adeno-associated virus serotype 2 (AAV2), UniProt P03135 1-735); assay: as above
T12 construct: Recombinant AAV2 vector particles in filtered cell lysate

[15] = biological target: T13, AAV2 N382A (adeno-associated virus serotype 2 (AAV2), UniProt P03135 1-735); assay: as above
T13 construct: Recombinant AAV2 vector particles in filtered cell lysate

[16] = biological target: T14, AAV2 H271Q (adeno-associated virus serotype 2 (AAV2), UniProt P03135 1-735); assay: as above
T14 construct: Recombinant AAV2 vector particles in filtered cell lysate

[17] = biological target: T15, AAV2 D528A (adeno-associated virus serotype 2 (AAV2), UniProt P03135 1-735); assay: as above
T15 construct: Recombinant AAV2 vector particles in filtered cell lysate

[18] = biological target: T16, AAV2 H271T (adeno-associated virus serotype 2 (AAV2), UniProt P03135 1-735); assay: as above
T16 construct: Recombinant AAV2 vector particles in filtered cell lysate

[19] = biological target: T17, AAV2 G383A (adeno-associated virus serotype 2 (AAV2), UniProt P03135 1-735); assay: affinity HPLC on AVR10s column, pH gradient 4.5 to 2.2; no elution peak, not adsorbed and passed through
T17 construct: Recombinant AAV2 vector particles in filtered cell lysate

[20] = biological target: T18, AAV2 H271F (adeno-associated virus serotype 2 (AAV2), UniProt P03135 1-735); assay: as above
T18 construct: Recombinant AAV2 vector particles in filtered cell lysate

[21] = biological target: T19, AAV2 D529A (adeno-associated virus serotype 2 (AAV2), UniProt P03135 1-735); assay: as above
T19 construct: Recombinant AAV2 vector particles in filtered cell lysate

[22] = biological target: T17, AAV2 G383A; assay: affinity HPLC on AVR21 column, pH gradient 6.0 to 2.0; no elution peak, not adsorbed and passed through
[23] = biological target: T18, AAV2 H271F; assay: as above
[24] = biological target: T19, AAV2 D529A; assay: as above

B1: AVR10s_A330C (receptor)
chain: MGSAGESDQITLPKNEVQLNCYVLQEPPKGETSTYDWQLITHPRDYSGEMEGEHSQILKLSNLTPGLYEFKAVVEGQNAHSEGYVNVTVEPEPRKNRPPIAIVSPQFQEISLPTTSTVIDGSQSTDDDKIVQYHWEELKGPLREEKISEDTAILKLSKLVPGNYTFRLTVVDSDGATDSTTANLTVNKAVDHHHHHH
For B1, the Binding activity for AAV5 (vs AVR10s) (ratio (AVR10s = 1)) [1] was 1.94.

B2: AVR10s_V332Y (receptor)
chain: B1 chain with C21A, V23Y
B2 was tested, and the Binding activity for AAV5 (vs AVR10s) (ratio (AVR10s = 1)) [1] was 1.5.

B3: AVR10s_L333C (receptor)
chain: B1 chain with C21A, L24C
B3 was tested, and the Binding activity for AAV5 (vs AVR10s) (ratio (AVR10s = 1)) [1] was 1.51.

B4: AAV-binding protein AVR10s (polypeptide of SEQ ID NO: 4, with polyhistidine tag) (receptor)
chain: B1 chain with C21A
In the case of B4, the Binding activity for AAV5 (vs AVR10s) (ratio (AVR10s = 1)) [2] is reported as 1.

B5: AVR10s_A330F (receptor)
chain: B1 chain with C21F
Work on B5 yielded a Binding activity for AAV5 (vs AVR10s) (ratio (AVR10s = 1)) [1] of 1.68.

B6: AVR10s_Q347S (receptor)
chain: B1 chain with C21A, Q38S
In the case of B6, the Binding activity for AAV5 (vs AVR10s) (ratio (AVR10s = 1)) [1] is reported as 1.73.

B7: AVR10s_L348C (receptor)
chain: B1 chain with C21A, L39C
For B7, the Binding activity for AAV5 (vs AVR10s) (ratio (AVR10s = 1)) [1] was 1.19.

B8: AVR10s_A330L (receptor)
chain: B1 chain with C21L
Work on B8 yielded a Binding activity for AAV5 (vs AVR10s) (ratio (AVR10s = 1)) [1] of 1.53.

B9: AVR10s_I349N (receptor)
chain: B1 chain with C21A, I40N
B9 was tested, and the Binding activity for AAV5 (vs AVR10s) (ratio (AVR10s = 1)) [1] was 1.13.

B10: AVR10s_A330R (receptor)
chain: B1 chain with C21R
Binder B10 has a Binding activity for AAV5 (vs AVR10s) (ratio (AVR10s = 1)) [1] of 1.5.

B11: AVR10s_A330V (receptor)
chain: B1 chain with C21V
Work on B11 yielded a Binding activity for AAV5 (vs AVR10s) (ratio (AVR10s = 1)) [1] of 1.83.

B12: AVR10s_A330W (receptor)
chain: B1 chain with C21W
With B12 the Binding activity for AAV5 (vs AVR10s) (ratio (AVR10s = 1)) [1] was 1.46.

B13: AVR10s_A330Y (receptor)
chain: B1 chain with C21Y
In the case of B13, the Binding activity for AAV5 (vs AVR10s) (ratio (AVR10s = 1)) [1] is reported as 2.19.

B14: AVR10s_Y331C (receptor)
chain: B1 chain with C21A, Y22C
Work on B14 yielded a Binding activity for AAV5 (vs AVR10s) (ratio (AVR10s = 1)) [1] of 1.3.

B15: AVR10s_V332W (receptor)
chain: B1 chain with C21A, V23W
B15 showed a Binding activity for AAV5 (vs AVR10s) (ratio (AVR10s = 1)) [1] of 3.87.

B16: AAV-binding protein AVR10s with cysteine tag (SEQ ID NO: 97), immobilised as AVR10s immobilization gel (receptor)
chain: MGSAGESDQITLPKNEVQLNAYVLQEPPKGETSTYDWQLITHPRDYSGEMEGEHSQILKLSNLTPGLYEFKAVVEGQNAHSEGYVNVTVEPEPRKNRPPIAIVSPQFQEISLPTTSTVIDGSQSTDDDKIVQYHWEELKGPLREEKISEDTAILKLSKLVPGNYTFRLTVVDSDGATDSTTANLTVNKAVDHHHHHHCRNDTCG
modifications: immobilised on a TOYOPEARL carrier with iodoacetamide groups; cysteine tag sequence serving as immobilization tag at positions 220-226
notes: purified on Ni Sepharose and coupled to the carrier; also called AVR10s column
In the case of B16, the “AVR10s column elution time” value [3] is reported as 54.4 min, the “AVR10s column elution time” value [4] is reported as 54.2 min and the “AVR10s column elution time” value [5] is reported as 52.9 min. For the same binder, the “AVR10s column elution time” value [6] was 53.4 min, the “AVR10s column elution time” value [7] was 53.7 min and the “AVR10s column elution time” value [8] was 53.1 min. The “AVR10s column elution time” value [9] was 54.4 min, the “AVR10s column elution time” value [10] was 48 min and the “AVR10s column elution time” value [11] was 52.1 min. For the same binder, the “AVR10s column elution time” value [12] was 47 min, the “AVR10s column elution time” value [13] was 50.9 min and the “AVR10s column elution time” value [14] was 46.7 min. The “AVR10s column elution time” value [15] was 46.4 min, the “AVR10s column elution time” value [16] was 46.4 min and the “AVR10s column elution time” value [17] was 47.5 min. For the same binder, the “AVR10s column elution time” value [18] was 42.6 min, the binding result [19] was “no binding” and the binding result [20] was “no binding”. B16: no binding [21].

B17: AAV-binding protein AVR21 with cysteine tag (SEQ ID NO: 102), immobilised as AVR21 immobilization gel (receptor)
chain: MGSAGESDQITLPKHEAQLNVYVLLVPPKGEASTYDWQLITHPRDYSGEMEGEHSQILKLSNLTPGLYEYRAVVEGQNAHSEGYVNVTVEPEPRKNRPPIAIVSPQFQEISLPTTSTVIDGSQSTDDDKIVQYHWEELKGPLREEKISEDTAILKLSQLVPGNYTFRLTVVDTDGATDSTTADLTVNKAVDHHHHHHCRNDTCG
modifications: immobilised on a TOYOPEARL carrier with iodoacetamide groups; cysteine tag sequence serving as immobilization tag at positions 220-226
notes: KIAA0319L PKD1 and PKD2 with 21 substitutions; also called AVR21 column
B17: no binding [22]; no binding [23]; no binding [24].
